This note sets out measurements from US20250213715A1, “ANTI-CSPG4 BINDING AGENTS, CONJUGATES THEREOF AND METHODS OF USING THE SAME” (Ardeagen Corporation, priority 2020, published 2025).

In assay [1] the target is T1, CSPG4 (chondroitin sulfate proteoglycan 4) on human tumor cell lines (human, UniProt Q6UVK1 30-2322).
T1 construct: Endogenous CSPG4 on human cell lines (A2058, Malme-3M, A375, SW1353, NCI-H2052); also called HMW MAA; MCSP
Briefly: flow cytometry on Malme-3M melanoma cells, 8-point dose curve, anti-hIgG-AF488. Here is the method:
(§1) Flow Cytometry—Cells were rinsed with PBS (phosphate buffered saline, pH 7.4) and harvested with Versene (Thermo Fisher) prior to incubation with FACs buffer (PBS+1% fetal bovine serum (FBS; source BioSun) containing test antibody or ADCs for 1 h at 4° C. Cells were rinsed and washed with FACs buffer (PBS+1% FBS) and detection was performed with anti-bigG-AF488. Cells were analyzed on a FACs Canto II (BD Biosciences). Quantitative FACs (qFACs) was performed to measure the number of antigen binding sites with the DAKO QifiKit (DAKO, Carpinteria, CA), according to the manufacturer's directions.
(§2) FACs binding of ARD107 antibody and corresponding conjugates to CSPG4-positive cell lines was conducted. The melanoma A2058 and Malme-3M, the SW1353 chondrosarcoma, and the NCI-H1975 lung cell lines were incubated with increasing concentrations (8-point dose curve) of the antibody, conjugates (ARD107-vcMMAE or ARD107-SN38 (ARD107-CL2A-SN-38)), or isotype control (hIgG1) for 1 hr at 4° C. Detection was done with an anti-hIgG-AF488 secondary antibody.

For assay [2], the target named is T1, CSPG4 (chondroitin sulfate proteoglycan …). In words: flow cytometry on A2058 melanoma cells, 6-point dose curve, anti-hIgG-AF488. On the procedure: as §1
(§3) The CSPG4+A2058 and A375 melanoma and the lung NCI-H2052 and NCI-H1975 cell lines were incubated with increasing concentrations of the antibody (6-point dose curve) for 1 hr at 4° C. Detection was done with an anti-hIgG-AF488 secondary antibody.
(§4) The data were graphed and estimated binding constants (EC50 in table) were determined with Prism (GraphPad Software, San Diego, CA).

Assay [3] has the same target. Briefly: flow cytometry on A375 melanoma cells, 6-point dose curve, anti-hIgG-AF488. On the procedure: as §1, §3, §4
The target is the same in assay [4]. Briefly: flow cytometry on A2058 melanoma cells, 8-point dose curve, anti-hIgG-AF488. On the procedure:
as §1, §2

Assay [5] has the same target. Briefly: flow cytometry on NCI-H2052 lung cells, 6-point dose curve, anti-hIgG-AF488. On the procedure:
as §1, §3, §4

Assay [6] has the same target. Briefly: flow cytometry on SW1353 chondrosarcoma cells, 8-point dose curve, anti-hIgG-AF488. Here is the method:
as §1, §2

T1 sequence (Q6UVK1 30-2322 limits assumed): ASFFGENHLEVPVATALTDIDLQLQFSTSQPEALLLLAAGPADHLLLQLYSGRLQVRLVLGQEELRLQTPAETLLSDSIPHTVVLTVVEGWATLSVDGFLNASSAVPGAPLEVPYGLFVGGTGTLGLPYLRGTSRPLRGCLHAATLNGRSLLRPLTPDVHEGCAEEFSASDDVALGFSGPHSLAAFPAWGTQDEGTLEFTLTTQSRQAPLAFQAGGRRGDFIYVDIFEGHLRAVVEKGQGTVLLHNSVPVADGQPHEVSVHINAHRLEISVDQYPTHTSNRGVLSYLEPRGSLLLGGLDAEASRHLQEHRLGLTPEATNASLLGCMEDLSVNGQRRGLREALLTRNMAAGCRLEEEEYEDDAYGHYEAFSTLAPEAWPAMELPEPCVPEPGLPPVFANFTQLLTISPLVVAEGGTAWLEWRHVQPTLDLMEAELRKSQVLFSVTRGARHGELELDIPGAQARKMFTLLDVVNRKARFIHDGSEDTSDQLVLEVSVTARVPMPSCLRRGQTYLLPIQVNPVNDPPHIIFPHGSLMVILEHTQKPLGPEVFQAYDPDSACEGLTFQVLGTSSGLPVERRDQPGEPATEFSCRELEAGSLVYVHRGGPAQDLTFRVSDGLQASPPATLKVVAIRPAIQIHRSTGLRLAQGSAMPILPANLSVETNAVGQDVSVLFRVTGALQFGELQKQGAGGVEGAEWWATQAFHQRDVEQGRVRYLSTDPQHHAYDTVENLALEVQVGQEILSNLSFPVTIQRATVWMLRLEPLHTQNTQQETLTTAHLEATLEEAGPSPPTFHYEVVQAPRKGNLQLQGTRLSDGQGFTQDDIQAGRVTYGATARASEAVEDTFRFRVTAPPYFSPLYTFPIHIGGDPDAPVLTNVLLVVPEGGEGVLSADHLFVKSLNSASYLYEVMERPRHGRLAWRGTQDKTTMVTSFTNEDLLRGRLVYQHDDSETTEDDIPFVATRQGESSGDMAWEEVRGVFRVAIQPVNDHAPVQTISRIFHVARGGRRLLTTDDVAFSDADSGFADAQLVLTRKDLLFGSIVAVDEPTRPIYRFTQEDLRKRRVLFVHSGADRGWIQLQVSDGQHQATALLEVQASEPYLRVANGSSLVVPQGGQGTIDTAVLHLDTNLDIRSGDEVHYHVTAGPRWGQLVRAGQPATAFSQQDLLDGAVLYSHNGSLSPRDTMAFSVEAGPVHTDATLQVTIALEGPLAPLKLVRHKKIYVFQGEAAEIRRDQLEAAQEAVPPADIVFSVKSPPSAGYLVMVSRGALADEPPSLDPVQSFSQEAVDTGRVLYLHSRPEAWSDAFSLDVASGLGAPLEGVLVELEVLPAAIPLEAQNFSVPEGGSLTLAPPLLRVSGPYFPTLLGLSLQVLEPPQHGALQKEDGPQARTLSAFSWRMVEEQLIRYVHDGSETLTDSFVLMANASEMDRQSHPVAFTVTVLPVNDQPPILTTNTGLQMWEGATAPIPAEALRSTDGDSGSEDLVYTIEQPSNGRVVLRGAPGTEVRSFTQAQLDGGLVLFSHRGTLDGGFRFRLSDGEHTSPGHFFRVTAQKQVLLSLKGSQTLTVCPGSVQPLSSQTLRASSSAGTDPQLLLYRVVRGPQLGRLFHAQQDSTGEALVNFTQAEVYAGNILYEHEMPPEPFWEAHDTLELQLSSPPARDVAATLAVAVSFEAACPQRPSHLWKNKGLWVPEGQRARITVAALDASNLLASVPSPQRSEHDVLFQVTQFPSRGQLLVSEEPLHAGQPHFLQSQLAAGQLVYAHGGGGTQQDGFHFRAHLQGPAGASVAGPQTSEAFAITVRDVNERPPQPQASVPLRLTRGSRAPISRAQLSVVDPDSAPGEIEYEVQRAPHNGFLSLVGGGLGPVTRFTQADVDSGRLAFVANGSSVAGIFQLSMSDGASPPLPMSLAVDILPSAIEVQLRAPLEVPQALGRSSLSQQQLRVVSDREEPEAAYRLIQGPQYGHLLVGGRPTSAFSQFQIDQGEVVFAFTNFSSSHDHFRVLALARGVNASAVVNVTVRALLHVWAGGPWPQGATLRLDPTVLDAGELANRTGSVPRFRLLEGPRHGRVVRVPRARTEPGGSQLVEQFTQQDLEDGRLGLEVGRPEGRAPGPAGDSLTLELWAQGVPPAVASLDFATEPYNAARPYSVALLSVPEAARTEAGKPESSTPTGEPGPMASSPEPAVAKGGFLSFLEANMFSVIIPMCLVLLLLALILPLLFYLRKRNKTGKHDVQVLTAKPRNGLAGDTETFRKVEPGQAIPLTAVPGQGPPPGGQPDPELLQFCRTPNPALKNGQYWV

B1: ARD107 antibody (antibody, human IgG1, kappa, V domains shown)
VH: EVQLQESGPGLVKPSQSLSLTCSVTGYSITSGYYWNWIRQFPGNKLEWMGYITYDGSNNYNPSLKNRISITRDTSKNQFFLKLNSVTTEDTATYYCADFDYWGQGTTLTVSS
VL: DIVLTQSPSSLSASLGDRVTISCSASQGIRNYLNWYQQRPDGTVKLLIYYTSSLHSGVPSRFSGSGSGTDYSLTISNLEPEDIATYYCQQYSKLPWTFGGGTKLEIKR
notes: also called unconjugated ARD107 monoclonal antibody
With B1, the EC50 is 0.59 nM in assay [1]; 0.24 nM in assay [2]; 0.19 nM in assay [3]; 0.48 nM in assay [4]; 0.3 nM in assay [5]; 0.21 nM in assay [6].
